cAMP level (HitHunter ECF cyclic AMP chemiluminescent assay; CHO cells co-expressing Gm1 and dopamine D1 receptor, 10 µM dopamine; cells expressing only the D1 receptor = 100%, no contact = 0%) and cAMP level (HitHunter ECF cyclic AMP chemiluminescent assay; CHO cells co-expressing Gm1 and adenosine A2a receptor, 10 µM adenosine; cells expressing only the A2a receptor = 100%, no contact = 0%) data for one substance are collected here from patent US20050260595A1.

Experiment [1] concerns the target human dopamine D1 receptor protein (human) (UniProt P21728). The experiment is described as follows: cell-based or functional assay.
Experiment [2] deals with human adenosine A2a receptor protein (human) (UniProt P29274). The experiment is described as follows: cell-based or functional assay.
Sequence of human adenosine A2a receptor protein (human) (P29274 whole entry): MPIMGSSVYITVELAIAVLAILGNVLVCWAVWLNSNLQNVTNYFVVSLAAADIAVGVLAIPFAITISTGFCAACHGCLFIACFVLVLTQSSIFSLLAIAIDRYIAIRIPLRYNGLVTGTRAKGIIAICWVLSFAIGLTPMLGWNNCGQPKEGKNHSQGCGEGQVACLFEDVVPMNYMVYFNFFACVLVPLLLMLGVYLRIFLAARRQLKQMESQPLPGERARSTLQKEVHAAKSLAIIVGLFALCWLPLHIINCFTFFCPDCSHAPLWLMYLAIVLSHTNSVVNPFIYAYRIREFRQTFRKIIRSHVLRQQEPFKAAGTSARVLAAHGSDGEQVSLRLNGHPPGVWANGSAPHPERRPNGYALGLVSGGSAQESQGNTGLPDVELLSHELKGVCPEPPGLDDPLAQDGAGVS

Sequence of human dopamine D1 receptor protein (human) (P21728 whole entry): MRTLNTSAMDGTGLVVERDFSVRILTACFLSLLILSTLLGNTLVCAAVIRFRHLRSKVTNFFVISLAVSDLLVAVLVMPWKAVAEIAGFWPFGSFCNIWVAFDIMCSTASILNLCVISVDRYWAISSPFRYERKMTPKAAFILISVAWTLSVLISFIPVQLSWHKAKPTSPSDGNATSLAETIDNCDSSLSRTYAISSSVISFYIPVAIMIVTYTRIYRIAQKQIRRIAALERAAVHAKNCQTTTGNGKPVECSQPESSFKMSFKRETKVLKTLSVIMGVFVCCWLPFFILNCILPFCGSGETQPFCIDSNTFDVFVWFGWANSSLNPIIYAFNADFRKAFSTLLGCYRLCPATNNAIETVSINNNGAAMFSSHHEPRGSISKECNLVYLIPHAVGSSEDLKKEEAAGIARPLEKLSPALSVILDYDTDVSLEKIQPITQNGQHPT

In the case of human Gm1 protein, the cAMP level (HitHunter ECF cyclic AMP chemiluminescent assay; CHO cells co-expressing Gm1 and dopamine D1 receptor, 10 µM dopamine; cells expressing only the D1 receptor = 100%, no contact = 0%) in experiment [1] is 127%. In experiment [2], this substance registered a cAMP level (HitHunter ECF cyclic AMP chemiluminescent assay; CHO cells co-expressing Gm1 and adenosine A2a receptor, 10 µM adenosine; cells expressing only the A2a receptor = 100%, no contact = 0%) of 134%.
